This passage reports stoichiometry N results from PMC7641504.

The target in this assay is double mutant (E87C, C312T) AmtB protein complex from E. coli (E. coli) (UniProt P69681). The assay can be described thus: native MS.

Usually stoichiometry N stands for a count of units in the complex or per binding partner.

The substance “double mutant (E87C, C312T) AmtB protein complex from E. coli (from UniProt P69681 23-428) (natural protein)” gave a stoichiometry N of 3.
